Data on three substances can be found in patent US5858973.

The data set has as its target IDX-1 (IDX-1/pBJ5 expressed in NIH-3T3) (Rattus norvegicus) (UniProt P52947). In words: cell_activity.

IDX-1 (IDX-1/pBJ5 expressed in NIH-3T3) (Rattus norvegicus), sequence (P52947 other isoform, or with tags, fused parts or gaps): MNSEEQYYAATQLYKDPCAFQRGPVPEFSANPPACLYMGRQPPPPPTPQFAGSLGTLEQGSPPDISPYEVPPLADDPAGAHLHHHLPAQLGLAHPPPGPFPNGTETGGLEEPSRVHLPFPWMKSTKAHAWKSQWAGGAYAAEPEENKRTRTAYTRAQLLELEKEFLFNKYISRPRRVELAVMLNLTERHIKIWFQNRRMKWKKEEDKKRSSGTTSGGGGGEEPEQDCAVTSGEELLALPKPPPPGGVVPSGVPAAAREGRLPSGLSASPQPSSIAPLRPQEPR

Substance SMS900(delta-250/-120)CAT promoter returned an activity (CAT reporter in NIH-3T3) of 5 fold.

SMS(-900/-250)TKCAT: the activity (parent TKCAT not activated) came to 4 fold.

The substance SMS900CAT promoter (-900 to +54) came in with an activity (CAT reporter in NIH-3T3) of 4 fold.
